According to patent US20060193821, “Aptamers to the human IL-12 cytokine family and their use as autoimmune disease therapeutics” (published 2006):

B1: A10.min5 (ssRNA)
RNA: GGAGCAUACACAAGAAGUUUUUUGUGCUCUGAGUACUCAGCGUCCGUAAGGGAUAUGCUCC
modifications: 2'-F C,U
B2: AMX86-E6 (ssRNA)
RNA: GGGAAAAGCGAAUCAUACACAAGAUCGCAAAAGGAGUUUGUCUCUGCUCUCGGAGUGUGUCAGUGCUCCGCCAGAGACCAACCGAGAA
modifications: 2'-F C,U
B3: AMX91-H12 (ssRNA)
RNA: GGGAAAAGCGAAUCAUACACAAGACGUGUGCUUUAUGUAAACCAUAACGUUCCAUAAGGAAUAUGCUCCGCCAGAGACCAACCGAGAA
modifications: 2'-F C,U
B4: AMX84-C10 (ssRNA)
RNA: GGGAAAAGCGAAUCAUACACAAGAGAUGUAUUCAGGCGGUCCGCAUUGAUGUCAGUUAUGCGUAGCUCCGCCAGAGACCAACCGAGAA
modifications: 2'-F C,U
B5: AMX86-D8 (ssRNA)
RNA: GGGAAAAGCGAAUCAUACACAAGACAGAGGCAAUGAGAGCCUGGCGAUGUCAGUCGCAUCUUGCUGCUCCGCCAGAGACCAACCGAGAA
modifications: 2'-F C,U
B6: AMX86-C7 (ssRNA)
RNA: GGGAAAAGCGAAUCAUACACAAGAUGCGCUAUGUUUGGCUGGGAAUUGUAGCAUUGCUCAAGUGGCUCCGCCAGAGACCAACCGAGAA
modifications: 2'-F C,U
B7: AMX84-G11 (ssRNA)
RNA: GGGAAAAGCGAAUCAUACACAAGAGUGCUUCGUAUGUUGAAUACGACGUUCGCAGGACGAAUAUGCUCCGCCAGAGACCAACCGAGAA
modifications: 2'-F C,U
B8: F11.min2 (ssRNA)
RNA: GGACAUACACAAGAUGUGCUUGAGUUAAAUCUCAUCGUCCCCGUUUGGGGAUAUGUC
modifications: 2'-F C,U
B9: Type 1.5 (ssRNA)
RNA: GGAGUACGCCGAAAGGCGCUUCCGAAAGGACGUCCGUAAGGGAUACUCC
modifications: 2'-F C,U
B10: AMX86-G9 (ssRNA)
RNA: GGGAAAAGCGAAUCAUACACAAGAUCCCAGCGGUACGUGAGUCUGUUAAAGGCCACCUAAUGUCGCUCCGCCAGAGACCAACCGAGAA
modifications: 2'-F C,U
B11: AMX86-H7 (ssRNA)
RNA: GGGAAAAGCGAAUCAUACACAAGAGAUGACUACACGCCAGUGUGCGCUUUUUGCGGAGUUAGCGGCUCCGCCAGAGACCAACCGAGAA
modifications: 2'-F C,U
B12: AMX84-A11 (ssRNA)
RNA: GGGAAAAGCGAAUCAUACACAAGAGAGGUAUGUGGUUUUGCGGAGCAACUCGUGUCAGCGGUCAGCUCCGCCAGAGACCAACCGAGAA
modifications: 2'-F C,U
B13: AMX84-F11 (ssRNA)
RNA: GGGAAAAGCGAAUCAUACACAAGAUGUGCUUGAGUUAAAUCUCAUCGUCCCCGUUUGGGGAUAUGCUCCGCCAGAGACCAACCGAGAA
modifications: 2'-F C,U
B14: AMX91-F11 (ssRNA)
RNA: GGGAAAAGCGAAUCAUACACAAGACGCGUCAGGUCCACGCUGAAAUUUAUUUUCGGCAGUGUAAGCUCCGCCAGAGACCAACCGAGAA
modifications: 2'-F C,U
B15: AMX91-G1 (ssRNA)
RNA: GGGAAAAGCGAAUCAUACACAAGAUAUGUGCCUGGGAUGGACGACAUCCCCUGUCUAAGGAUAUGCUCCGCCAGAGACCAACCGAGAA
modifications: 2'-F C,U
B16: B10.min4 (ssRNA)
RNA: GGAGCAUACACAAGAAGUGCUUCAUGCGGCAAACUGCAUGACGUCGAAUAGAUAUGCUCC
modifications: 2'-F C,U
B17: AMX86-A9 (ssRNA)
RNA: GGGAAAAGCGAAUCAUACACAAGAUCUACGAUUGUUCAGGUUUUUUGUACUCAACUAAAGGCGAGCUCCGCCAGAGACCAACCGAGAA
modifications: 2'-F C,U
B18: AMX91-A6 (ssRNA)
RNA: GGGAAAAGCGAAUCAUACACAAGAUUGGCAAUGUGACCUUCAACCCUUUUCCCGAUGAACAGUGGCUCCGCCAGAGACCAACCGAGAA
modifications: 2'-F C,U
B19: AMX86-F6 (ssRNA)
RNA: GGGAAAAGCGAAUCAUACACAAGAAUGUAUACAAUGCCCUAUCGUCAGUUAGGCAUGUGUGGAUGCUCCGCCAGAGACCAACCGAGAA
modifications: 2'-F C,U
B20: AMX91-G11 (ssRNA)
RNA: GGGAAAAGCGAAUCAUACACAAGACUUAACAGUGCGGGGCGCAGUGUAUAGAUCCGCAAUGUGUGCUCCGCCAGAGACCAACCGAGAA
modifications: 2'-F C,U
B21: AMX86-C8 (ssRNA)
RNA: GGGAAAAGCGAAUCAUACACAAGAGUCGUGAUGAUUUGGGUUAUGUCAGUUCCCUGUAUGGUUUCGCUCCGCCAGAGACCAACCGAGAA
modifications: 2'-F C,U
B22: AMX84-E12 (ssRNA)
RNA: GGGAAAAGCGAAUCAUACACAAGAAGUUUUUGUGCUCUGAGUACUCAGCGUCCGUAAGGGAUAUGCUCCGCCAGAGACCAACCGAGAA
modifications: 2'-F C,U
B23: AMX91-B5 (ssRNA)
RNA: GGGAAAAGCGAAUCAUACACAAGACAGUGUAUGAGGAAGAUUACUUCCAUUCCUGAGCGGUUUUCGCUCCGCCAGAGACCAACCGAGAA
modifications: 2'-F C,U
B24: AMX91-H3 (ssRNA)
RNA: GGGAAAAGCGAAUCAUACACAAGACAUUGUGCUUUAUCACGUGGGUGAUAACGACGAAAGUUAUGCUCCGCCAGAGACCAACCGAGAA
modifications: 2'-F C,U
B25: AMX91-E3 (ssRNA)
RNA: GGGAAAAGCGAAUCAUACACAAGAUUACUCCGUUAGUGUCAGUUGACGGAGGGAGCGUACUAUUGCUCCGCCAGAGACCAACCGAGAA
modifications: 2'-F C,U
B26: AMX91-G7 (ssRNA)
RNA: GGGAAAAGCGAAUCAUACACAAGACAUGACUGCAUGCUUCGGGAGUAUCUCGGUCCCGACGUUCGCUCCGCCAGAGACCAACCGAGAA
modifications: 2'-F C,U

How the values were obtained:
[1] = molecular target: T1, IL-23 (human, p19/p40 heterodimer) (Homo sapiens, UniProt Q9NPF7;P29460 SEQ:20-189,SEQ:23-328); assay: cell_activity; TransAM STAT3; conditions: tags: R&D Systems, carrier free
T1 sequence (Q9NPF7 20-189, chain 1 of 2): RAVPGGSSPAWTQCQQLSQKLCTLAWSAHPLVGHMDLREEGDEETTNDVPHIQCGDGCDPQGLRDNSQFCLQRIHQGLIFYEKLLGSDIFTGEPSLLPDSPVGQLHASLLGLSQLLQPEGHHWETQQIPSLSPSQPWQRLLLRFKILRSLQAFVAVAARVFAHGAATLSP
T1 sequence (P29460 23-328, chain 2 of 2): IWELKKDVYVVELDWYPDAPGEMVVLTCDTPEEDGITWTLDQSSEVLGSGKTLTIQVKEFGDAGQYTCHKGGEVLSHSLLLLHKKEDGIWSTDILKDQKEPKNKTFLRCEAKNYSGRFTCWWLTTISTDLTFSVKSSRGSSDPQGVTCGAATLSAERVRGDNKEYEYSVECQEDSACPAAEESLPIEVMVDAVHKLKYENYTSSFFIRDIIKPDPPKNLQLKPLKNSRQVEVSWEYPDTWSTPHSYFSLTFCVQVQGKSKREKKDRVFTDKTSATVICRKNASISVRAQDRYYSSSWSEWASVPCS
Description: In summary, the cell-based assay was conducted by isolating the peripheral blood mononuclear cells (PBMCs) from whole blood using a Histopaque gradient (Sigma, St. Louis, Mo.). The PBMCs were cultured for 3 to 5 days at 37° C./5% CO₂ in Peripheral Blood Medium (Sigma) which contains PHA, supplemented with IL-2 (100 units/mL) (R&D Systems, Minneapolis, Minn.), to generate PHA Blasts. To test IL-23 aptamers, the PHA Blasts were washed twice with 1×PBS, then serum starved for four hours in RPMI, 0.20% FBS. After serum starvation, approximately 2 million cells were aliquotted into appropriately labeled eppendorf tubes. hIL-23 at a final constant concentration of 3 ng/mL (R&D Systems, Minneapolis, Minn.) was combined with a dilution series of various IL-23 aptamers as described in Example 1, and the cytokine/aptamer mixture was added to the aliquotted cells in a final volume of 100 μl and incubated at 37° C. for 10-12 minutes. The incubation reaction was stopped by adding 1 mL of ice-cold PBS with 1.5 mM Na₃VO₄. Cell lysates were made using the lysis buffer provided by the TransAM™ STAT 3 assay following the manufacturer's instructions. FIG. 20 depicts a flow summary of the protocol used for the cell based assay.
Full length clones from the rRfY selection described in Example 1A, and select minimized rRfY clones that were described in Example 2A. 1, were tested using the TransAM™ STAT3 activation assay. Table 34 summarizes the cell based assay data for IL-23 full length aptamers generated from the rRfY selections described in Example 1A. 1, each compared to the activity of their respective parent (full length) clone.

[2] = molecular target: IL-12 (human, p35/p40 heterodimer) (Homo sapiens, UniProt P29459;P29460 SEQ:57-253,SEQ:23-328); assay: filter; no significant binding
Chain of IL-12 (human, p35/p40 heterodimer) (P29459 23-219, chain 1 of 2): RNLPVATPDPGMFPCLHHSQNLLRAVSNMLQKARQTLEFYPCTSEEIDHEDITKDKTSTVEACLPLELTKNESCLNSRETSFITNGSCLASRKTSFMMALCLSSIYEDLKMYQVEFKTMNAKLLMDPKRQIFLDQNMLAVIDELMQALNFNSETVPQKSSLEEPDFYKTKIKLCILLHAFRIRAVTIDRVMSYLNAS
Chain of IL-12 (human, p35/p40 heterodimer) (P29460 23-328, chain 2 of 2): as the sequence (P29460 23-328, chain 2 of 2) above

[3] = molecular target: T1, IL-23 (human, p19/p40 heterodimer); assay: filter; SHMCK, tRNA; conditions: tags: R&D Systems, carrier free
Description: Monitoring Progress of rRfY Selection. Dot blot binding assays were performed throughout the selections to monitor the protein binding affinity of the pools. Trace ³²P-labeled RNA was combined with a dilution series of h-IL-23 and incubated at room temperature for 30 minutes in 1×SHMCK (20 mM Hepes, 120 mM NaCl, 5 mM KCl, 1 mM MgCl₂, 1 mM CaCl₂, pH 7.4) plus 0.1 mg/mL tRNA for a final volume of 20 μL. The binding reactions were analyzed by nitrocellulose filtration using a Minifold I dot-blot, 96-well vacuum filtration manifold (Schleicher & Schuell, Keene, N.H.). A three-layer filtration medium was used, consisting (from top to bottom) of Protran nitrocellulose (Schleicher & Schuell), Hybond-P nylon (Amersham Biosciences) and GB002 gel blot paper (Schleicher & Schuell). RNA that is bound to protein is captured on the nitrocellulose filter, whereas the non-protein bound RNA is captured on the nylon filter. The gel blot paper was included simply as a supporting medium for the other filters. Following filtration, the filter layers were separated, dried and exposed on a phosphor screen (Amersham Biosciences, Piscataway, N.J.) and quantified using a Storm 860 Phosphorimager® blot imaging system (Amersham Biosciences).
When a significant positive ratio of binding of RNA in the presence of h-IL-23 versus in the absence of h-IL-23 was seen, the pools were cloned using a TOPO TA cloning kit (Invitrogen, Carlsbad, Calif.) according to the manufacturer's instructions. For the h-IL-23 and X-IL-23 selections, the Round 8 pool templates were cloned, and 32 individual clones from each selections were assayed in a 1-point dot blot screen (+/−75 nM h-IL-23, as well as a separate screen at +/−75 nM h-IL-12). For the PN-IL-23 selection, the Round 10 pool was cloned and sequenced, and 8 unique clones were assayed for protein binding in a 1-point dot blot screen (+/−200 nM h-IL-23 and a separate screen at +/−200 nM h-IL-12). Subsequently, the Round 10 PN-IL-23 pool was re-cloned for further sequences, as well as the R12 PN-IL-23 pool, and the clones were assayed for protein binding in a 1 point do blot screen (+/−100 nM h-IL-23 or +/−200 nM h-IL-12).

Row | Binder | IC50 [1] | binding result [2] | Kd [3]
1 | B1 | 300 nM |  | 
2 | B2 |  | no binding | 51.3 nM
3 | B3 |  | no binding | 60.8 nM
4 | B4 | 250 nM | no binding | 94.3 nM
5 | B5 |  | no binding | 294 nM
6 | B6 |  | no binding | 140 nM
7 | B7 | 250 nM | no binding | 291 nM
8 | B8 | 25 nM |  | 
9 | B9 | 80 nM |  | 
10 | B10 |  | no binding | 109 nM
11 | B11 |  | no binding | 89.8 nM
12 | B12 |  | no binding | 17.8 nM
13 | B13 | 250 nM |  | 
14 | B14 |  | no binding | 202 nM
15 | B15 |  | no binding | 82.3 nM
16 | B16 | 500 nM |  | 
17 | B17 |  | no binding | 190 nM
18 | B18 |  | no binding | 60.3 nM
19 | B19 |  | no binding | 69.1 nM
20 | B20 |  | no binding | 104 nM
21 | B21 |  | no binding | 107 nM
22 | B22 |  | no binding | 27.8 nM
23 | B23 |  | no binding | 148 nM
24 | B24 | 50 nM | no binding | 266 nM
25 | B25 |  | no binding | 205 nM
26 | B26 | 150 nM | no binding | 63.6 nM
